Test: yeast display, Sf9 membrane polyspecificity reagent, FACS + sequencing; frameworks hold sequencing errors
Method in brief: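 After 36–48 hours of galactose induction, yeast (Saccharomyces cerevisiae BJ5465) displaying a synthetic nanobody library were stained at 4 °C for 1 hour with 10% biotinylated, detergent-solubilized Sf9 membrane reagent. Streptavidin microbeads enriched the stained cells before FACS sorting into low and high (top ~1%) gates on anti-HA and streptavidin fluorescence. Each clone's polyreactivity label reflects its gate of origin.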

Sequence	polyreactivity (PSR sort gate)
QVQLVESGGGLVQAGGSLRLSCAASGRIFDWNAMGWYRQAPGKERELVAAISYSDGSTYYADSVKGRFTISRDNAKNTVYLQMNSLKREDTAVYYCDADFYDRTYITWYEYWGQGTQVTVSS	high polyreactivity
QVQLVESGGGLVQAGGSLRLSCAASGSIFDVNPMGWYRQAPGKERELVAAISQRGTRTYYADSVKGRFTISRDNAKNTVYLQMNSLKPEDTAVYSCNRGGWRQYDSWGQGTQVTVSS	high polyreactivity
QVQLGESGGGLVQAGGSLRLSCAASGRTFGPYAMGWYRQAPGKERELVAAIRYIDDSTFYADSVKGRFTISRDTAKNTVYLQMNSLKPEDTAVYYCAARPYPHSAYEGDYWGRGTQVTVSS	low polyreactivity
QVQLVESGGGLVQAGGSLRLSCAASGSIFIRYAMGWSRQAPGTEREWVAAITSTGSTSYADSVNGRFTISRDNAKNTVYLQMNRLTPEDTAVYYCAKEASLVQGVIGGYPYDSWGQGTQVTVSS	low polyreactivity
QVQLEESGGGLVQAGGSLRLCCAASGSTFWAYVMGWYRQAPGKEMELVAAISKSGVRTHYADSVKGRFTISRDNAKNTVYLQMNSRKPEDTAVYYSAAGGVGNLDDYWGQGTQVTVSS	high polyreactivity
QVQLVESGGGLVEAGGSLRLSCADSGRIFLRNAMGWSRQAPGKERELVAAINRGGRTNYADSVKGRFTISRDNAKNTVYLQMNSLKPEDTAVYYCATERESPGYTEYDSWGQGTQVTVSS	low polyreactivity
QVQLVESGGGLVQAGGSHRLSCAASGSTFKDYAMVWYRQAPGKERELVASITESGGSTYYADSVKGRFTISRDNAKNTVYLQMNSLNPEDTAVYYCATDLIPEGSGYDYWGQGTQVTVSS	low polyreactivity
QVQLVESGGGLVQAGGSLRLSCAASGFTFYGNAMGWYRHAPGKERELVAAIRSGGITYYADSVKGRFTISRDNAKNTVYLQMNSLKPEDTSVYYCAAYSDYYLDQWYGYWGQGTQVTVSS	low polyreactivity
QVQLVESGGGLVQAGGSLRLSCAASGRTFYYYGRVWYRQAPGKERDFVAAITRSGGRTYYADSVKGRFTISRDNAKNTVYLQMNSLKPEDTAVYYCATGGYYRYSGLSVYGYPYEYWGQGTQVTVSS	high polyreactivity
QVQLVESGGGLVHAGGSLRLSCAASGLTFKRYAMGWSRQAPGKERELVASITGNGGSTYYADSVKGRFTISRDNAKNTVYSQMNSLKPEDTAVYYCNARRYVRTSQQPLYDYWGQGTQVTVSS	high polyreactivity
QVQLVESGGGLVQAGGSLRLSCAASGSTFSHYAMGWYRQATGKERELVAAISKSGGITYYADSVKGRFTISRDNAKNTVYLQMNSLKPEDTAVYYCNARWSWRGTRYDYGYWGQGTQVTVSS	low polyreactivity
QVQLVESGGGLVQAGGSLRLSCAASGRIFFSYMGWYRQAPGKERELVAAISSGGSTYYADSVKGRFTISRDNAKNTVYLQMNSLKPEDTAVYYCAARYRLDGTHMTGYAYYSWGQGTQVTVSS	high polyreactivity
QVQLVESGGGLVQAGGSLRLSSAASGSTFLRYAMGWYRQAPGKERELVAAISYSGGSTYYADSVKGRFTISRDNAKNTVYLQMNSLIPQDTAVNYCNAGVFANDNGGRRDHFTWEYEYWGQGTQVTVSS	low polyreactivity
QVQLVESGGGLVQAGGSLRLSCAGSGFTFGKNAMGWYRQAPGKERELVAANSGRGGRTFYADSVKGRFTISRDNAKNTVYLQMNSLKPEDTADYYCAAQRYYDNQYPYEYWGQGTQVTVSS	high polyreactivity
QVQLVESGGGLVQAGGSLRLSCAASGRTFRHNALGWYRQAPGKERELVAAISKSGGRTYYADSVKGRFTISRDNAKNTVYLQMNSLKPEDTAVYYCAAPLYVSTSGEVGYWGQGTQVTVSS	high polyreactivity
QVQLVESGGGLVQAGGSLRLSCAASGRTFWWYAMGWYRQAPGKERELVAGISGSTGTTHYADSVKGRFTISRDNAKNTVYLQMNSLKPEDTAGYYCAARRRYYRGFLFDYWGQGTQVTVSS	high polyreactivity
QVQLVESGGGLVQAGGSLRLSCAASGNTVKGYAMGWYRQAPGKERELVAAISWSGSSTYYADSVKGRFTISRDNAKNTVYLQMNSLKPEDTAVYYCNRKYLGRYASVYGYGYWGQGTQVTVSS	high polyreactivity
QVQLVESGGGLVQAGGSLRLSCAASGRIFLTYAMGWYRQAPGKERELVAAITRRGGRTNYADSVKGRFTISRDNAKNTVYLQMNSLKPEDTAVYYCAKSPWPSHLDYDYWGQGTQVTVSS	low polyreactivity
QVQLVESAGGLVQAGGSLRLSCAASGSIFHYYAMGWYRQAPGKERELVAAINSSGGSRTYYADSVKGRFTISRDKAKNTVYLQMNSLKPEDTAVYYCAADYRVVWRAYDYWGQGTQVTVSS	low polyreactivity
QVQLVESGGGLVHAGGSLRLSCAASGRTFYANAMGWYRQAPGKERELVAAISSRSGTTHYADSEKGRFTISRDNAKNSVYLQMNSLKPEETAVYYCAVRYYRRRYDYWGQGTQVTVSS	low polyreactivity
QVQRVESGGGLVQAGGSLRLSCAASGFIFYFYAMRWYRQAPGNERELVAAITWSGTDTYYADSVKGRFTISRDNAKNTVYLQMNSLKPEDTAVYYCARSEHSLVSIKVDYWGQGTQVTVSS	low polyreactivity
QVQLVESGGGLVQAGGSLRLSCAASGRTFSVNAMGWYRQAPGKEREFVAAITGSTGSTFYADSVKGRFTISRDNAKNSVYLQMNSLKPDDTAVYYCAAGPWFYYWGQGTQVTVSS	low polyreactivity

Sequence	polyreactivity (PSR sort gate)
QVHLVESGGGLVQAGGSHRLSCAASGRTFDNYAMGWYRQAPGKERELVAAISRRGGSTYYADSVKGRFTISRDNAKNTVYLQMNSLKPEDTAVYYCAADRLVWKPTVVGFYYWGQGTQVTVSS	high polyreactivity
QLQLVESGGGLVQAGGSLRLSCAASGGTFQPNAMGWYIQAPGKESELVAAISWSDGSTYYADSVKGRFTISRDYAKNTVYLQMNSLKPEDTAVDYCAADFTYYDSPYRDYNYESWGQGTQVTVSS	low polyreactivity
QVQLVESGGGLVQAGGSLRLSCAASGTFSPYAIGWYRQAPGKERELVAVITSNTGRTYADSVKGRFTISRDNAKNTVYLQMNSLKPEDTAVYYCAARSTYRHWYRTGSRFDYWGQGTQVTVSS	low polyreactivity
QVQLVESGGGLVQAGGSLRLSCAASGSTFKRYAMGWYRQAPGKEREFVAGISSRGSRTYYADSVKGRFTISRDNAKNTVYLQMNSLKPEDTAGYYCAVSGNHVSPPYGYWGQGTQVTVSS	high polyreactivity
QVQLVESGGGLLQAGGSLRLSCAASGSTFRGNALGWYRQAPGKVRELVAAINSSGGRTYYADSVKGRFTISRDNAKNTVYLQMNSLKPEDTAVNYCAARGRRTGDYDYWGQGTQVTVSS	high polyreactivity
QVQLVESGGGLVQAGGSLRLSCAASGRIFTWYAMGWYRTAPGKERELVATITGDGNTYYADSVKGRFTISRDNAKNTVYLQMKSLKPEDTAVYYCNRYGYFRYRWGKYEYWGQGTQVTVSS	high polyreactivity
QVQLVESGGGLVQAGGSLRLSCAASGSTFKFYAMGWYRQAPGKERELVAAISGSSGSTYYADSVKGRFTISRDNAKNTVYLQMNSLKPEDTAVYYCNTQYSRYYTRYSAYDYWGQGTQVTVSS	low polyreactivity
QVQLVESGGGLVQAGGSLRLSCAASGSIFWYYAMGWYRQAPGKERELVARITFSGSRTHYADSVKGRFTISRDNAKNTVYLQMNSLKPEDTSVYYCATDTVYGNDYWGQGTQVTVSS	low polyreactivity
QVQLVESGGGLVQAGGSLRLSCAASGNIFYYYAMGWYRQAPGKERELVATISKGGGSTNYADSVKGRFTISRDNAKNTVYLQMNSLKPEDTAVYYCNASYVSRRYHFDYWGQGTQVTVSS	high polyreactivity
QVQLVESGGGLVQAGGSLRLSCAASGRTFCSNAMGWYRPAPGKERELVAAISNGDNTYYADSVKGRFTISRDNAKNTVYLQMNSLKPEDTAVYYCNADYTVYDTEYDYWGQGTQVTVSS	low polyreactivity
QVQLVESGGGLVQAGGSLRLSCAASGRTFGGNAMGWYRQAPGKERELVAAINSDGGRTYYADSVKARFTISRDNAKNTVYLQMNSLKPEDTAVYYCNRAYRKSYTGYGYDYWGQGTQVTVSS	high polyreactivity
QVQLVESGGGLVQAGGSLRLSSAASGSTFGPYAMGWYRQAPGKERELVATITRNGGSTYYADSVKGRFTISRDYAKNTVYLQMNSLKPEETAFYSCNAEGRWSSFTQRMDYWGQGTQVNVSS	low polyreactivity
QVQLVESGGGLVQAGGSLRLSCAASGFTFYRYAMGWYRQAPGKERELVATISASGASTYYADSVKGRFSISRDNAKNNVYLQMNRLKPEDTAVYYCAVRYKSWYGFNYWGQGTQVTVSS	high polyreactivity
QVQLVESGGGLVQAGGSLRLSCAASGRTFYEYAMGWYRQAPGKESELVASIRSGGSTFYADSVKGRFTISRDNAKYTVYLQMNSLKPEDTAVYYCAAYRVPPYRYRFARVNYWGQGTQVTVSS	high polyreactivity
QVQLVESGGGLVQAGGSLRLICAASGSTFYSYAMGWYRQAPGKERELVAVISWSGGSTYYADSVKGRFTISRDNAKNTVYLQMNSLKPEDTAVYYCAAESYYSDDWYYAYYYWGQGTQVTVSS	high polyreactivity
QVQLVESGGGLVQAGGSLRLSCAASGFTFRKYAMGWYRQAPGKERELVADISGGTGSTYYADSVKGRFTISRDNAKNTDYLHMNSLKPEDTAVYYCNAEGWYYLTEYGYWGQGTQLTVSS	low polyreactivity
QVQLVESGGGIVQAGGSLRLSCAASGRTFSSYARGWYRQAPGKERELVAAISSDGVDTYYADSVKGRFTISRDNAKNTVYLQMNSLKPEDTAVYYCNAEEGGPEYAYSYYRMDYWGQGTQVTVSS	low polyreactivity
QVQLVESGGGLVQAGGSLRLSCAASGSTFFIYAMGWYRQAPGKERELVAAISGSGGTTYYADSVKGRFTISRDNAKNTVYLQMNSLKPEDTAVYYCAARTFSAFWRGGYDYWGQGTQVTVSS	low polyreactivity
QVQLVESGGVLVQAGGSLRLSCAASGSIFDHYAMGWYRQAPGKERELVAAITYSDGSTYYADSVKGRFTISRDNAKNTVFLQMNSLKPEDTAVFYCAAYPRGSQRYNYWGQGTHVTVSS	high polyreactivity
QVQLVESGGGLVQAGGSLRLSCAASGSIFWVYAMGWYRQAPGKEREFVAAITYSGGSTYYADSVKGRFTISRDNAKNTVYLQMNSLKPEDTAVYYCAADYDYDYGSRYYYWGQGTQVTVSS	low polyreactivity
QVQLVESGGGLVQAGGSLRLSCAAAGRTFYNYAMGWYRQAPGKERELVAAIDWGSDSTYYADSVKGRFTISRDNAKNTVYLQMNSLKPEDTAVYYCAKRPKNKPVLGDYDHWGQGTQVTVSS	low polyreactivity

— the nanobody polyreactivity screen of Harvey et al. (2022)
